B1: CPEB3 Ribozyme (parent)
chain: GGGGGCCACAGCAGAAGCGUUCACGUCGCGGCCCCUGUCAGAUUCUGGUGAAUCUGCGAAUUCUGCUGU

The variants in this series derive from B1. The series is described as follows: self-cleavage, relative activity (ratio to wild type); higher = more cleavage; co-transcriptional.
GGGGGCCACAGCAGAAGCGUUCACGUCGCGGCCCCUGUCAUAUUCUGGUGAAUCUGCGAAUUCUUCUGU [G41U G65U]: the self-cleavage worked out at 0.366.
The value for GGGGGCCACAGCAGAAGCGUUCACGUCGCGGCCCCUGUCAUAUUCUGGUGAAUCUGCGAAUUCUACUGU [G41U G65A] was 0.438.
GGGGGCCACAGCAGAAGCGUUCACGUCGCGGCCCCUGUCACAUUCUGGUGAAUCUGCGAAUCCUGCUGU [G41C U62C]: the self-cleavage was found to be 0.365.
Then GGGGGCCACAGCAGAAGCGUUCACGUCGCGGCCCCUGUCACAUUCUGGUGAAUCUGCGAAUGCUGCUGU [G41C U62G], with 0.363.
The value for GGGGGCCACAGCAGAAGCGUUCACGUCGCGGCCCCUGUCACAUUCUGGUGAAUCUGCGAAUUCUUCUGU [G41C G65U] was 0.327.
For the variant GGGGGCCACAGCAGAAGCGUUCACGUCGCGGCCCCUGUCACAUUCUGGUGAAUCUGCGAAUUCUACUGU [G41C G65A], the self-cleavage came to 0.426.
Then GGGGGCCACAGCAGAAGCGUUCACGUCGCGGCCCCUGUCACAUUCAGGUGAAUCUGCGAAUUCUGCUGU [G41C U46A], with 0.921; and GGGGGCCACAGCAGAAGCGUUCACGUCGCGGCCCCUGUCAUAUUCUGGUGAAUCUGCGAAUUCUGCUCU [G41U G68C], with 0.93.
The value for GGGGGCCACAGCAGAAGCGUUCACGUCGCGGCCCCUGUCAUAUUCUGGUGAAUCUGCGAAUUCUGCUUU [G41U G68U] was 0.972.
The value for GGGGGCCACAGCAGAAGCGUUCACGUCGCGGCCCCUGUCAUAUUCUGGUGAAUCUGCGAAUUCUGCUAU [G41U G68A] was 0.931; that for GGGGGCCACAGCAGAAGCGUUCACGUCGCGGCCCCUGUCACAUUCUGGUGAAACUGCGAAUUCUGCUGU [G41C U53A] was 0.463.
For the variant GGGGGCCACAGCAGAAGCGUUCACGUCGCGGCCCCUGUCACAUUCUGGUGAACCUGCGAAUUCUGCUGU [G41C U53C], the self-cleavage is 0.283.
Take GGGGGCCACAGCAGAAGCGUUCACGUCGCGGCCCCUGUCACAUUCUGGUGAAUCUGCGAAUUCGGCUGU [G41C U64G]: the self-cleavage is 0.426.
In the case of GGGGGCCACAGCAGAAGCGUUCACGUCGCGGCCCCUGUCACAUUCUGGUGAAUCUGCGAAUUCAGCUGU [G41C U64A], the self-cleavage worked out at 0.369.
The value for GGGGGCCACAGCAGAAGCGUUCACGUCGCGGCCCCUGUCACAUUCUGGUGAAUCUGUGAAUUCUGCUGU [G41C C57U] was 0.329; that for GGGGGCCACAGCAGAAGCGUUCACGUCGCGGCCCCUGUCAUAUUCUGGUGACUCUGCGAAUUCUGCUGU [G41U A52C] was 0.431.
In the case of GGGGGCCACAGCAGAAGCGUUCACGUCGCGGCCCCUGUCAUAUUCUGGUGAGUCUGCGAAUUCUGCUGU [G41U A52G], the self-cleavage is 0.749.
The value for GGGGGCCACAGCAGAAGCGUUCACGUCGCGGCCCCUGUCACAUUCUAGUGAAUCUGCGAAUUCUGCUGU [G41C G47A] was 0.904; that for GGGGGCCACAGCAGAAGCGUUCACGUCGCGGCCCCUGUCACAUUCUGGUGAAUCUACGAAUUCUGCUGU [G41C G56A] was 0.667.
As to GGGGGCCACAGCAGAAGCGUUCACGUCGCGGCCCCUGUCACAUUCUGGUGAAUCUUCGAAUUCUGCUGU [G41C G56U], the self-cleavage stood at 0.369.
As for GGGGGCCACAGCAGAAGCGUUCACGUCGCGGCCCCUGUCAUAUUCUGCUGAAUCUGCGAAUUCUGCUGU [G41U G48C], the self-cleavage stood at 0.952.
Take GGGGGCCACAGCAGAAGCGUUCACGUCGCGGCCCCUGUCAUAUUCUGUUGAAUCUGCGAAUUCUGCUGU [G41U G48U]: the self-cleavage is 0.99.
Turning to GGGGGCCACAGCAGAAGCGUUCACGUCGCGGCCCCUGUCACAUUCUGUUGAAUCUGCGAAUUCUGCUGU [G41C G48U], the self-cleavage was 0.966.
For the variant GGGGGCCACAGCAGAAGCGUUCACGUCGCGGCCCCUGUCACAUUCUGCUGAAUCUGCGAAUUCUGCUGU [G41C G48C], the self-cleavage is 0.869.
Regarding GGGGGCCACAGCAGAAGCGUUCACGUCGCGGCCCCUGUCACAUGCUGGUGAAUCUGCGAAUUCUGCUGU [G41C U44G], the self-cleavage was 0.317.
For the variant GGGGGCCACAGCAGAAGCGUUCACGUCGCGGCCCCUGUCACAUCCUGGUGAAUCUGCGAAUUCUGCUGU [G41C U44C], the self-cleavage came out at 0.342.
The value for GGGGGCCACAGCAGAAGCGUUCACGUCGCGGCCCCUGUCACAUACUGGUGAAUCUGCGAAUUCUGCUGU [G41C U44A] was 0.377.
Then GGGGGCCACAGCAGAAGCGUUCACGUCGCGGCCCCUGUCACAUUCUGGUGAAUCCGCGAAUUCUGCUGU [G41C U55C], with 0.394; and GGGGGCCACAGCAGAAGCGUUCACGUCGCGGCCCCUGUCAUAUUCUGGUGAAUGUGCGAAUUCUGCUGU [G41U C54G], with 0.95; and GGGGGCCACAGCAGAAGCGUUCACGUCGCGGCCCCUGUCAUAUUCUGGUGAAUAUGCGAAUUCUGCUGU [G41U C54A], with 0.972.
The value for GGGGGCCACAGCAGAAGCGUUCACGUCGCGGCCCCUGUCAUAUUCUGGUGAAUUUGCGAAUUCUGCUGU [G41U C54U] was 0.94; that for GGGGGCCACAGCAGAAGCGUUCACGUCGCGGCCCCUGUCAUAUUCUGGUGAAUCUGCGAAUUCUGAUGU [G41U C66A] was 0.441.
Take GGGGGCCACAGCAGAAGCGUUCACGUCGCGGCCCCUGUCAUAUUCUGGUGAAUCUGCGAAUUCUGGUGU [G41U C66G]: the self-cleavage amounted to 0.428.
Then GGGGGCCACAGCAGAAGCGUUCACGUCGCGGCCCCUGUCAUAUUCUGGUGAAUCUGCGGAUUCUGCUGU [G41U A59G], with 0.933; and GGGGGCCACAGCAGAAGCGUUCACGUCGCGGCCCCUGUCAUAUUCUGGUGAAUCUGCGCAUUCUGCUGU [G41U A59C], with 0.412; and GGGGGCCACAGCAGAAGCGUUCACGUCGCGGCCCCUGUCACAUUCUGGUGAAUCUGCGAAUUAUGCUGU [G41C C63A], with 0.296.
Then GGGGGCCACAGCAGAAGCGUUCACGUCGCGGCCCCUGUCACAUUCUGGUGAAUCUGCGAAUUCUGCGGU [G41C U67G], with 0.787; and GGGGGCCACAGCAGAAGCGUUCACGUCGCGGCCCCUGUCACAUUCUGGUGAAUCUGCGAAUUCUGCAGU [G41C U67A], with 0.716; and GGGGGCCACAGCAGAAGCGUUCACGUCGCGGCCCCUGUCACAUUCUGGUGAAUCUGCAAAUUCUGCUGU [G41C G58A], with 0.772.

These data come from the RNAGym collection of RNA variant scans (doi:10.7554/elife.80360).
